Experimental data as given in the supplement of paper PMC7125110.
± gives the standard error. For some of these results: Fewer inactive variants are shown than the library holds.

B1: glmS ribozyme (parent)
chain: AUAAAAGCGCCAGAACUACAGAAAUGUAGUUGACGAGGAGGAGGUUUAUCGAAUUUUCGGCGGAUGCCUCCAAA

Tests used:
Conditions in all cases: with glucosamine-6-phosphate
glucosamine-6-phosphate [1] = variants of: B1; assay: kcat; higher = faster cleavage; RNA array
How it was run: (§1)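 Glucosamine-6-phosphate, from 40 μM to 10 mM in HEPES/KCl/Mg(OAc)2 buffer, was flowed over sequenced MiSeq chips carrying barcoded ribozyme variants transcribed in situ by E. coli RNA polymerase. A hybridised Cy3 probe tracked the variants at 37 °C as tiles were imaged over ~14 h. kobs, kcat and KM were obtained by fitting normalised per-tile medians to exponential decays and then applying weighted Michaelis–Menten fits across concentrations.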

glucosamine-6-phosphate [2] = variants of: B1; assay: KM; higher = weaker cofactor use; RNA array
How it was run: as §1

glucosamine-6-phosphate [3] = variants of: B1; assay: self-cleavage kobs at 40 uM GlcN6P; higher = faster cleavage; RNA array
How it was run: as §1

glucosamine-6-phosphate [4] = variants of: B1; assay: self-cleavage kobs at 160 uM GlcN6P; higher = faster cleavage; RNA array
How it was run: as §1

glucosamine-6-phosphate [5] = variants of: B1; assay: self-cleavage kobs at 640 uM GlcN6P; higher = faster cleavage; RNA array
How it was run: as §1

glucosamine-6-phosphate [6] = variants of: B1; assay: self-cleavage kobs at 2500 uM GlcN6P; higher = faster cleavage; RNA array
How it was run: as §1

glucosamine-6-phosphate [7] = variants of: B1; assay: self-cleavage kobs at 10000 uM GlcN6P; higher = faster cleavage; RNA array
How it was run: as §1

Row | Variant | kcat (glucosamine-6-phosphate [1]) [s⁻¹] | KM (glucosamine-6-phosphate [2]) [µM] | self-cleavage kobs at 40 uM GlcN6P (glucosamine-6-phosphate [3]) [s⁻¹] | self-cleavage kobs at 160 uM GlcN6P (glucosamine-6-phosphate [4]) [s⁻¹] | self-cleavage kobs at 640 uM GlcN6P (glucosamine-6-phosphate [5]) [s⁻¹] | self-cleavage kobs at 2500 uM GlcN6P (glucosamine-6-phosphate [6]) [s⁻¹] | self-cleavage kobs at 10000 uM GlcN6P (glucosamine-6-phosphate [7]) [s⁻¹]
1 | U30G U46G | 0.00267 ± 0.0006 | 3990 ± 1200 | 4.16e-05 ± 1.4e-05 | 0.000105 ± 2.3e-05 | 0.000333 ± 4.9e-05 | 0.00112 ± 0.00015 | 0.00181 ± 0.00038
2 | U30G U46C | 0.000516 ± 3.6e-05 | 1240 ± 170 |  | 6.38e-05 ± 2.1e-05 | 0.000167 ± 3.1e-05 | 0.000377 ± 7.4e-05 | 0.000443 ± 8.5e-05
3 | U30G A53U | 0.00761 ± 0.0027 |  | 0.000261 ± 3.2e-05 | 0.000465 ± 0.00011 | 0.0019 ± 0.00032 | 0.00357 ± 0.0007 | 0.00788 ± 0.0011
4 | U31C C67A | 0.00103 ± 0.00015 | 1970 ± 540 | 2.9e-05 ± 6.9e-06 | 5.29e-05 ± 2.2e-05 | 0.000244 ± 5.6e-05 | 0.000603 ± 0.00011 | 0.000857 ± 0.0001
5 | U30G U56A | 0.00811 ± 0.0019 | 2730 ± 850 | 0.000125 ± 1.6e-05 | 0.000498 ± 0.0001 | 0.00146 ± 0.00024 | 0.003 ± 0.00057 | 0.00771 ± 0.0011
6 | U31A C58G | 0.000589 ± 0.00022 |  |  |  |  | 3.87e-05 ± 1.3e-05 | 0.00013 ± 1.9e-05
7 | U31A U45G | 0.0028 ± 0.00084 | 1730 ± 710 | 7.39e-05 ± 1.2e-05 | 0.000168 ± 4e-05 | 0.000882 ± 0.00014 | 0.00203 ± 0.00033 | 0.00194 ± 0.00049
8 | U31A U45C | 0.00168 ± 0.00049 | 3380 ± 1600 |  |  | 0.000288 ± 8.9e-05 | 0.000998 ± 0.00023 | 0.00116 ± 0.00024
9 | U30G U54C | 0.00885 ± 0.00078 | 2170 ± 270 | 0.000148 ± 2.5e-05 | 0.000617 ± 0.00011 | 0.00235 ± 0.00041 | 0.00471 ± 0.0008 | 0.00714 ± 0.001
10 | U30G G32A | 0.00542 ± 0.0022 | 4720 ± 2300 | 5.91e-05 ± 1.1e-05 | 0.00017 ± 2.3e-05 | 0.000709 ± 9.2e-05 | 0.00123 ± 0.0003 | 0.00438 ± 0.00065
11 | U31C A42G | 0.00894 ± 0.0011 | 2260 ± 400 | 0.000166 ± 2.9e-05 | 0.000469 ± 0.00016 | 0.00212 ± 0.00035 | 0.00407 ± 0.0011 | 0.00754 ± 0.0012
12 | U30G A52U | 6.83e-05 ± 9.4e-06 |  |  |  |  | 4.14e-05 ± 1.5e-05 | 5.6e-05 ± 1e-05
13 | U31C G37U | < 1e-05 |  | < 1e-05 |  | < 1e-05 |  | 
14 | U31A | 0.0242 ± 0.0089 | 2460 ± 1100 | 0.000428 ± 7.9e-06 | 0.00127 ± 5.8e-05 | 0.00431 ± 0.00015 | 0.00997 ± 0.00043 | 0.0286 ± 0.0012
15 | U31C | 0.00939 ± 0.0013 | 2370 ± 430 | 0.000168 ± 2.9e-06 | 0.000489 ± 1.7e-05 | 0.00208 ± 7.4e-05 | 0.00415 ± 0.00014 | 0.00805 ± 0.00018
16 | U31C C70G | 5.96e-05 ± 8.1e-06 |  |  |  | 3.34e-05 ± 7.2e-06 | 6.15e-05 ± 7.8e-06 | 4.89e-05 ± 8.3e-06
17 | U31A U57A | 0.000241 ± 3.5e-06 | 2390 ± 95 |  |  | 4.97e-05 ± 2.1e-05 | 0.000125 ± 2.8e-05 | 0.000194 ± 2.7e-05
18 | U31A C50A G51U A53G | < 1e-05 |  |  | < 1e-05 |  |  | 
19 | U31A G44U | 0.00017 ± 9.6e-06 | 3960 ± 530 |  |  |  | 6.38e-05 ± 1.6e-05 | 0.000122 ± 1.8e-05
20 | U31C A33U | 1.97e-05 ± 2.4e-06 |  |  |  |  |  | 1.73e-05 ± 6e-06
21 | U30G U31A | 0.0147 ± 0.001 | 914 ± 110 | 0.000631 ± 0.0002 |  |  |  | 0.0137 ± 0.0031
22 | U30G G32A U49G | 6.41e-05 ± 1.8e-05 |  |  |  |  | 6.89e-05 ± 2.1e-05 | 5.26e-05 ± 1.5e-05
23 | U30G G43U | 1.16e-05 ± 2.3e-06 |  |  | < 1e-05 | < 1e-05 |  | 
24 | U31A A53U | 0.02 ± 0.007 | 3760 ± 1700 | 0.000232 ± 3.6e-05 | 0.000911 ± 0.00027 | 0.00278 ± 0.00064 | 0.00529 ± 0.0016 | 0.0181 ± 0.0034
25 | U30G G40U | 0.000787 ± 9.4e-05 | 1610 ± 350 | 3.53e-05 ± 1.3e-05 | 6.94e-05 ± 1.5e-05 | 0.000212 ± 2.9e-05 | 0.000615 ± 0.00014 | 0.000668 ± 7.3e-05
26 | U30G G40C | 0.000669 ± 0.0001 | 864 ± 240 | 3.69e-05 ± 1.2e-05 | 0.000103 ± 1.9e-05 | 0.000265 ± 3.4e-05 | 0.000619 ± 8.6e-05 | 0.000544 ± 0.0001
27 | U31A G41A | 0.000876 ± 0.00042 |  |  | 8.73e-05 ± 1.5e-05 | 0.000163 ± 3.6e-05 | 0.00078 ± 0.00012 | 0.000647 ± 0.00014
28 | U31A G66A | 0.0119 ± 0.0032 | 6540 ± 2200 | 0.000105 ± 3.4e-05 | 0.000259 ± 6.1e-05 | 0.00114 ± 0.00021 | 0.00305 ± 0.00048 | 0.00767 ± 0.0017
29 | U31A G59A | 0.000128 ± 1.5e-05 | 2710 ± 740 |  |  | 2.94e-05 ± 1.4e-05 | 5.49e-05 ± 1.7e-05 | 0.000104 ± 2.3e-05
